{"source": "patent US20090123479A1", "about": "(published 2009)", "binders": {"B1": {"name": "A3M1 (antibody, human IgG1, kappa, V domains shown)", "VH": "QVQLVQSGAEVKKPGSSVKVSCKASGYTFTSYGITWVRQAPGQGLEWMGENYPRSGNTYYNEKFKGRVTITADKSTSTAYMELSSLRSEDTAVYYCARSEFISTVVAPYYYALDYWGQGTLVTVSS", "VL": "DIVMTQSPDSLAVSLGERATINCKASKKVTIFGSISALHWYQQKPGQPPKLIYNGAKLESGVSDRFSDSGSQNRSPFGNQLSFTLTISSLQAEDVAVYYCLQNKEVPYTFGGGTKVEIKR", "notes": "Full length chains"}}, "key": {"[1]": {"target": "T1, recombinant cynomologus IL-23 (cynomolgus, limits assumed)", "T1 construct": "also called cynomolgus IL-23; cyno IL23", "T1 chain 1": "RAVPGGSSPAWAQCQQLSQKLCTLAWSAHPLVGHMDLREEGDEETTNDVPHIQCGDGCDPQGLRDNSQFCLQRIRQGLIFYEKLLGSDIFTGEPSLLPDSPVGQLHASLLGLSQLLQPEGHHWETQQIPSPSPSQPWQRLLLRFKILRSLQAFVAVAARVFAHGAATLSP", "T1 chain 2": "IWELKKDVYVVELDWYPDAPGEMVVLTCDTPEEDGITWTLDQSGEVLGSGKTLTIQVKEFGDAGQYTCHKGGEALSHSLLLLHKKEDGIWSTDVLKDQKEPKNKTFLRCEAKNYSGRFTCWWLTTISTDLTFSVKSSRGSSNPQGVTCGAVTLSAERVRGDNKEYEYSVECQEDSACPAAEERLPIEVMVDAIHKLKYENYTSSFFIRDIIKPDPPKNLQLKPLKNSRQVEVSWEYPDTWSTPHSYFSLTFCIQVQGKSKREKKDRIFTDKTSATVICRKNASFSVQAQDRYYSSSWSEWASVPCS", "experiment": "IL-23/IL-23R inhibition ELISA (optimised protocol, OD450): plate coated with human IL23R Fc chimera, antibody pre-incubated with constant cynomolgus IL-23, bound IL-23 detected with biotinylated anti-human IL-12; purified antibody", "experimental": "(§1) Optimised protocol: Plates were coated with human IL23R Fc chimera at […] (phosphate buffered saline). 50 μl/well of this mixture was incubated overnight at 4° C. The plates were then washed three times with Phosphate Buffered Saline with 0.05% Tween 20 (PBST). Plates were blocked with 4% skim milk powder (Fluka BioChemika #70166) PBST 100 μl/well for a minimum of 1 hour at room temperature. The plates were then washed three times with Phosphate Buffered Saline+0.05% Tween 20 (PBST). Various concentrations of antibody were incubated in a separate plate with a constant concentration of IL-23 for 1 hour at room temperature. 50 ul of each mixture were transferred to the assay plate and incubated at RT for 1 hr. They were then washed three times with Phosphate Buffered Saline+0.05% Tween 20 (PBST). Bound IL23 was detected by anti human 1L12 Biotin labelled Ab (R&D systems BAF219) diluted to 100 ng/ml in 4% skim milk powder (Fluka BioChemika #70166) PBST. 50 μl/well of the biotinylated antibody was added and incubated at RT for 1 hour. The plates were then washed three times with Phosphate Buffered Saline+0.05% Tween 20 (PBST). SA HRP (GE healthcare RPN4401) was diluted 1/4000 in 4% skim m ilk powder (Fluka BioChemika #70166) PBS, 50 μl/well was added to the plates. The plates were then washed three times with Phosphate Buffered Saline+0.05% Tween 20 (PBST). 50 ul/well of TMB was added to the plates and incubated at RT for 15 min. 25 μl/well of 3 MH₂SO₄ was added to the wells already containing TMB. The plate was read at OD450 nm using the SOftmaxPRO versamax plate reader."}, "recombinant human IL-23 [2]": {"target": "T2, recombinant human IL-23 (human, UniProt Q9NPF7 20-189; P29460 23-328)", "T2 construct": "also called hIL-23", "T2 sequence 1": "T1 chain 1 with A12T, R75H, P131L", "T2 sequence 2": "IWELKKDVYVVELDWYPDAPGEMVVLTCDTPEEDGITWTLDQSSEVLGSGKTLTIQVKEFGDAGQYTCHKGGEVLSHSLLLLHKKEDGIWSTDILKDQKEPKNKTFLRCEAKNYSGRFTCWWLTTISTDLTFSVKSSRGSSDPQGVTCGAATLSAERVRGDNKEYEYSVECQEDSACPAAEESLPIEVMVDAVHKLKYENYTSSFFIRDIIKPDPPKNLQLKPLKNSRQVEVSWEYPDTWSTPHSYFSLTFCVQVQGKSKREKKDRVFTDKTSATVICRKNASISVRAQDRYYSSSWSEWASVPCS", "experiment": "IL-23/IL-23R inhibition ELISA (optimised protocol, OD450): plate coated with human IL23R Fc chimera, antibody pre-incubated with constant human IL-23, bound IL-23 detected with biotinylated anti-human IL-12; purified antibody", "experimental": "as §1"}, "recombinant human IL-23 [3]": {"target": "T2, recombinant human IL-23", "experiment": "SPR (Biacore T100), CHO supernatant antibody captured on Protein A or anti-human IgG, IL-23 analyte at 256, 64, 16, 4, 1 nM"}, "recombinant human IL-23 [4]": {"target": "T2, recombinant human IL-23", "experiment": "sandwich ELISA (optimised protocol, OD450): plate coated with anti-human IL-12, antibody pre-incubated with constant human IL-23, bound antibody detected with anti-human IgG gamma chain HRP; purified antibody", "experimental": "Optimised assay conditions: Plates were coated with anti human IL12 at 2 μg/diluent (phosphate buffered saline). 50 μl/well of this mixture was incubated overnight at 4° C. The plates were then washed three times with Phosphate Buffered Saline with 0.05% Tween 20 (PBST). Plates were blocked with 4% skim milk powder (Fluka BioChemika #70166) PBS 200 μl/well for a minimum of 1 hour at room temperature. The plates were then washed three times with Phosphate Buffered Saline+0.05% Tween 20 (PBST). Various concentrations of antibody were incubated in a separate plate with a constant concentration of IL-23 for 1 hour at room temperature. 50 ul of each mixture were transferred to the assay plate and incubated at RT for 1 hr. They were then washed three times with Phosphate Buffered Saline+0.05% Tween 20 (PBST). […] 50 μl/well of the detection antibody was added and incubated at RT for 1 hour. The plates were then washed three times with Phosphate Buffered Saline+0.05% Tween 20 (PBST). 50 μl/well of TMB was added to the plates and incubated at RT for 10 min. 50 μl/well of 1 MH₂SO₄ was added. The plate was read at OD450 nm using the SOftmaxPRO versamax plate reader."}, "recombinant human IL-23 [5]": {"target": "T2, recombinant human IL-23", "experiment": "IL-23/IL-23R inhibition ELISA (first protocol, OD490): plate coated with human IL23R Fc chimera, antibody pre-incubated with constant human IL-23, bound IL-23 detected with biotinylated anti-human IL-12; tissue culture supernatant", "experimental": "Chimeric and humanized mAbs were assessed for their ability to neutralise human IL-23 binding to human IL-23 receptor, and cyno IL23 binding to human IL23 receptor. Plates were coated with human IL23R Fc chimera at 1 μg/diluent (bicarbonate buffer). 50 μl/well of this mixture was incubated overnight at 4° C. The plates were then washed twice with Tris Buffered Saline with 0.05% Tween 20 (TBST). Plates were blocked with 1% BSA TBST 100 μl/well for a minimum of 1 hour at room temperature. The plates were then washed twice with Tris Buffered Saline with 0.05% Tween 20 (TBST). Various concentrations of antibody were incubated in a separate plate with a constant concentration of IL-23 for 1 hour at room temperature. 50 ul of each mixture were transferred to the assay plate and incubated at RT for 1 hr. They were then washed twice with Tris Buffered Saline with 0.05% Tween 20 (TBST). Bound IL23 was detected by anti human 1L12 Biotin labelled Ab (R&D systems BAF219) diluted to 100 ng/ml in 1% BSA TBST. 50 μl/well of the biotinylated antibody was added and incubated at RT for 1 hour. The plates were then washed twice with Tris Buffered Saline with 0.05% Tween 20 (TBST). ExtrAvidin-Peroxidase (Sigma E2886) was diluted 1/1000 in 1% BSA TBST, 50 μl/well was added to the plates. […] The plate was read at OD490 nm using the SOftmaxPRO versamax plate reader."}, "recombinant human IL-23 [6]": {"target": "T2, recombinant human IL-23", "experiment": "SPR (Biacore 3000), CHO supernatant antibody captured on Protein A or anti-human IgG, IL-23 analyte at 256, 64, 16, 4 nM"}}, "note": "Changes are numbered by the printed parent chain.", "data": [{"binder": "B1", "values": [{"measurement": "IC50 (read off the curve)", "setting": "[1]", "result": "~800", "unit": "pM"}, {"measurement": "IC50 (read off the curve)", "setting": "recombinant human IL-23 [2]", "result": "~500", "unit": "pM"}, {"measurement": "Kd", "setting": "recombinant human IL-23 [3]", "result": 2400, "unit": "pM"}, {"measurement": "koff", "setting": "recombinant human IL-23 [3]", "result": 0.00031, "unit": "s⁻¹"}, {"measurement": "kon", "setting": "recombinant human IL-23 [3]", "result": 130000, "unit": "M⁻¹ s⁻¹"}, {"measurement": "EC50 (read off the curve)", "setting": "recombinant human IL-23 [4]", "result": "~40", "unit": "pM"}, {"measurement": "IC50 (read off the curve)", "setting": "recombinant human IL-23 [5]", "result": "~10", "unit": "ng/mL"}, {"measurement": "Kd", "setting": "recombinant human IL-23 [6]", "result": 1500, "unit": "pM"}, {"measurement": "koff", "setting": "recombinant human IL-23 [6]", "result": 0.00036, "unit": "s⁻¹"}, {"measurement": "kon", "setting": "recombinant human IL-23 [6]", "result": 240000, "unit": "M⁻¹ s⁻¹"}]}]}
